Laboratory results: patent US20200024330A1 (published 2020)
Substitutions are numbered along the chain they refer to.

B1: 1495_C14 (PGC14) (antibody, human IgG1, lambda, V domains shown)
VH: DGHLVQSGVEVKKTGATVKISCKVSGYSFIDYYLHWVQRAPGKGLEWVGLIDPENGEARYAEKFQGRVTIIADTSIDTGYMEMRSLKSEDTAVYFCAAGAVGADSGSWFDPWGQGTLVTVSS
VL: SYELTQPPSVSVSPGQTASITCSGSKLGDKYVSWYQLRPGQSPILVMYENDRRPSGIPERFSGSNSGDTATLTISGTQALDEADFYCQAWETTTTTFVFFGGGTQLTVLG
B2: 1456_P20 (PG20) (antibody, human IgG1, kappa, V domains shown)
VH: QVRLVQSGPEVKKPGSSVTVSCQASGGTFSSYAFTWVRQAPGQGLEWLGMVTPIFGEAKYSQRFEGRVTITADESTSTTSIELRGLTSEDTAIYYCARDRRAVPIATDNWLDPWGQGTLVTVSS
VL: DIQLTQSPSSLSASVGDRVSITCRASQTINNYLNWYQQTPGKAPKLLIYGASNLQNGVPSRFSGSGSGTDFTLTISSLQPEDFATYYCQQSFSTPRTFGQGTRLDIKR
B3: 1496_C09 (PG9) (TCN-109) (antibody, V domains shown)
VH: QRLVESGGGVVQPGSSLRLSCAASGFDFSRQGMHWVRQAPGQGLEWVAFIKYDGSEKYHADSVWGRLSISRDNSKDTLYLQMNSLRVEDTATYFCVREAGGPDYRNGYNYYDFYDGYYNYHYMDVWGKGTTVTVSS
VL: QSALTQPASVSGSPGQSITISCNGTSNDVGGYESVSWYQQHPGKAPKVVIYDVSKRPSGVSNRFSGSKSGNTASLTISGLQAEDEGDYYCKSLTSTRRRVFGTGTKLTVLG
B4: 1443_C16 (PG16) (TCN-116) (antibody, V domains shown)
VH: QEQLVESGGGVVQPGGSLRLSCLASGFTFHKYGMHWVRQAPGKGLEWVALISDDGMRKYHSDSMWGRVTISRDNSKNTLYLQFSSLKVEDTAMFFCAREAGGPIWHDDVKYYDFNDGYYNYHYMDVWGKGTTVTVSS
VL: QSALTQPASVSGSPGQTITISCNGTSSDVGGFDSVSWYQQSPGKAPKVMVFDVSHRPSGISNRFSGSKSGNTASLTISGLHIEDEGDYFCSSLTDRSHRIFGGGTKVTVLG
B5: 1460_G14 (PGG14) (antibody, human IgG1, kappa, V domains shown)
VH: QVLLVQSGTEVKKPGSSVKVSCQASGGAFSSYAFSWVRQAPGQGLEWMGMITPVFGETKYAPRFQGRLTLTAEESLSTTYMELRSLTSDDTAFYYCTRDRRVVPMATDNWLDPWGQGTLVTVSS
VL: B2 VL with S20T, I21V, N30H, N31T, T39I, N53T, N56S, S76N, F92Y
B6: 1460_G14 (PGG14) (antibody, V domains shown)
VH: B5 VH
VL: B2 VL with S20T, I21V, N30H, N31T, T39I, N53T, N56S, S76N, F92Y
B7: 1456_P20 (PG20) (antibody, V domains shown)
VH: B2 VH
VL: DIQLTQSPSSLSASVGDRVSITCRASQTINNYLNWYQQTPGKAPKLLIYGASNLQNGVPSRFSGSGSGTDFTLTISSLQPEDFATYYCQQSFSTPRTFGQGTRLDIK
notes: also called B cell culture plate 1456 well P20
B8: 1495_C14 (PGC14) (antibody, V domains shown)
VH: B1 VH
VL: SYELTQPPSVSVSPGQTASITCSGSKLGDKYVSWYQLRPGQSPILVMYENDRRPSGIPERFSGSNSGDTATLTISGTQALDEADFYCQAWETTTTTFVFFGGGTQLTVL
notes: also called B cell culture plate 1495 well C14
B9: 1460_G14 (PGG14) (antibody, V domains shown)
VH: B5 VH
VL: B7 VL with S20T, I21V, N30H, N31T, T39I, N53T, N56S, S76N, F92Y
notes: also called B cell culture plate 1460 well G14

How the values were obtained:
[1] = target: HIV-1 93UG077 envelope protein (Env) on pseudovirus (HIV-1 isolate 93UG077); experiment: cell-based or functional assay
[2] = target: HIV-1 IAVI-C22 envelope protein (Env) on pseudovirus (HIV-1 isolate IAVI-C22); experiment: cell-based or functional assay
[3] = target: HIV-1 APV-17 envelope protein (Env) on pseudovirus (HIV-1 isolate APV-17); experiment: cell-based or functional assay
[4] = target: HIV-1 APV-13 envelope protein (Env) on pseudovirus (HIV-1 isolate APV-13); experiment: cell-based or functional assay
[5] = target: HIV-1 92UG024 envelope protein (Env) on pseudovirus (HIV-1 isolate 92UG024); experiment: cell-based or functional assay
[6] = target: HIV-1 92TH021 envelope protein (Env) on pseudovirus (HIV-1 isolate 92TH021); experiment: cell-based or functional assay
[7] = target: HIV-1 93IN905 envelope protein (Env) on pseudovirus (HIV-1 isolate 93IN905); experiment: cell-based or functional assay
[8] = target: HIV-1 92BR020 envelope protein (Env) on pseudovirus (HIV-1 isolate 92BR020); experiment: cell-based or functional assay
[9] = target: HIV-1 IAVI-C18 envelope protein (Env) on pseudovirus (HIV-1 isolate IAVI-C18); experiment: cell-based or functional assay
[10] = target: aMLV envelope protein on pseudovirus (negative control) (aMLV); experiment: cell-based or functional assay
[11] = target: HIV-1 94UG103 envelope protein (Env) on pseudovirus (HIV-1 isolate 94UG103); experiment: cell-based or functional assay
[12] = target: HIV-1 CMU02 envelope protein (Env) on pseudovirus (HIV-1 isolate CMU02); experiment: cell-based or functional assay
[13] = target: HIV-1 IAVI-C3 envelope protein (Env) on pseudovirus (HIV-1 isolate IAVI-C3); experiment: cell-based or functional assay
[14] = target: HIV-1 92RW020 envelope protein (Env) on pseudovirus (HIV-1 isolate 92RW020); experiment: cell-based or functional assay
[15] = target: HIV-1 APV-6 envelope protein (Env) on pseudovirus (HIV-1 isolate APV-6); experiment: cell-based or functional assay
[16] = target: HIV-1 92UG005 envelope protein (Env) on pseudovirus (HIV-1 isolate 92UG005); experiment: cell-based or functional assay
[17] = target: aMLV envelope protein on pseudotyped virus (negative control) (aMLV); experiment: cell-based or functional assay
[18] = target: T1, recombinant monomeric gp120 of HIV-1 isolate JR-CSF (HIV-1 isolate JR-CSF, UniProt P20871 32-503); experiment: anti-gp120 ELISA, B cell culture supernatant on captured gp120
T1 construct: domain: gp120

Row | Binder | IC50 (µg/mL), pseudovirus neutralization [1] [µg/mL] | IC50 (µg/mL), pseudovirus neutralization [2] [µg/mL] | IC50 (µg/mL), pseudovirus neutralization [3] [µg/mL] | IC50 (µg/mL), pseudovirus neutralization [4] [µg/mL] | IC50 (µg/mL), pseudovirus neutralization [5] [µg/mL] | IC50 (µg/mL), pseudovirus neutralization [6] [µg/mL] | IC50 (µg/mL), pseudovirus neutralization [7] [µg/mL] | IC50 (µg/mL), pseudovirus neutralization [8] [µg/mL] | IC50 (µg/mL), pseudovirus neutralization [9] [µg/mL] | IC50 (µg/mL), pseudovirus neutralization [10] [µg/mL] | IC50 (µg/mL), pseudovirus neutralization [11] [µg/mL] | IC50 (µg/mL), pseudovirus neutralization [12] [µg/mL] | IC50 (µg/mL), pseudovirus neutralization [13] [µg/mL] | IC50 (µg/mL), pseudovirus neutralization [14] [µg/mL] | IC50 (µg/mL), pseudovirus neutralization [15] [µg/mL] | IC50 (µg/mL), pseudovirus neutralization [16] [µg/mL] | IC50, pseudovirus neutralization, 1 hour Virus/Ab Incubation [17] [µg/mL] | IC50, pseudovirus neutralization, 18 hour Virus/Ab Incubation [17] [µg/mL] | ELISA OD [18] [OD]
1 | B1 | > 50 | > 50 | > 50 | > 50 | > 50 | > 50 | > 50 | 0.64 | > 50 | > 50 | > 50 | > 50 | 9.5 | 28.6 | 7.41 | > 50 | – | – | –
2 | B2 | > 50 | > 50 | > 50 | > 50 | > 50 | > 50 | > 50 | > 50 | > 50 | > 50 | > 50 | > 50 | > 50 | 50 | 25.8 | > 50 | – | – | –
3 | B3 | > 50 | – | 26.4 | > 50 | – | – | – | > 50 | 0.05 | > 50 | 0.17 | > 50 | 12.9 | 0.06 | 0.09 | > 50 | – | – | –
4 | B4 | > 50 | 0.069 | > 50 | > 50 | > 50 | 0.13 | 0.1 | > 50 | 0.007 | > 50 | 0.008 | > 50 | 14.8 | 0.004 | 0.08 | > 50 | – | – | –
5 | B5 | > 50 | > 50 | > 50 | > 50 | > 50 | > 50 | > 50 | > 50 | > 50 | > 50 | > 50 | > 50 | > 50 | > 50 | > 50 | > 50 | – | – | –
6 | B6 | – | – | – | – | – | – | – | – | – | – | – | – | – | – | – | – | > 50 | > 50 | –
7 | B7 | – | – | – | – | – | – | – | – | – | – | – | – | – | – | – | – | – | – | 3.78
8 | B8 | – | – | – | – | – | – | – | – | – | – | – | – | – | – | – | – | – | – | 3.76
9 | B9 | – | – | – | – | – | – | – | – | – | – | – | – | – | – | – | – | – | – | 3.49
